Assay results taken from patent US20250304693A1 (HIFIBIO, published 2025).
Where a chain is given by its changes, count along the chain named.

Columns and labels:
[1] = target: T1, human BTLA (B- and T-lymphocyte attenuator) on cells (human, UniProt Q7Z6A9 31-289); assay: cell-based or functional assay
recombinant human BTLA = target: T2, recombinant human BTLA (human, UniProt Q7Z6A9 31-157, limits assumed); assay: ELISA on recombinant human BTLA
T2 construct: ELISA antigen; construct not described
T2 sequence (looked up): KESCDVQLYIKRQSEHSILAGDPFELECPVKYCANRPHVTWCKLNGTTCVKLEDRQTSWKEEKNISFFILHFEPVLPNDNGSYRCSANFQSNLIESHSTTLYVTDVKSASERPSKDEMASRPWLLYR

[2] = target: T1, human BTLA (B- and T-lymphocyte …); assay: cell-based or functional assay; remark: listed apart in the source
[3] = target: T1, human BTLA (B- and T-lymphocyte …); assay: FACS on HEK293T.hBTLA cells, AF647 anti-human IgG Fc detection
Experimental: (§1) In FIGS. 11A and 11B, HEK293 overexpressing human BTLA (FIG. 11A) and Expi293 cells overexpressing cynomolgus BTLA (FIG. 11B) were incubated with different concentrations of selected HFB6-3 humanized variants with cysteine mutations. Anti-BTLA antibodies binding to target cells were quantified with an AF647-conjugated anti-human IgG Fc 2nd antibody by FACS. HFB6-3hz24-hG4P-C109A, HFB6-3hz25-hG4P-C109A, HFB6-3hz24-hG4P-C109S and HFB6-3hz25-hG4P-C109S bound to human BTLA and cyno BTLA with single digit nM and sub-nM EC₅₀, similar as parental HFB6-3 (FIGS. 11A and 11B and Table 13).

cynomolgus BTLA on cells [4] = target: T3, cynomolgus BTLA on cells (cynomolgus, UniProt A0A2K5W7M7 31-289); assay: FACS on Expi293.cynoBTLA cells, AF647 anti-human IgG Fc detection
T3 construct: whole, on cells; Overexpressed on Expi293 cells; also called cyno BTLA; CynoBTLA
T3 sequence: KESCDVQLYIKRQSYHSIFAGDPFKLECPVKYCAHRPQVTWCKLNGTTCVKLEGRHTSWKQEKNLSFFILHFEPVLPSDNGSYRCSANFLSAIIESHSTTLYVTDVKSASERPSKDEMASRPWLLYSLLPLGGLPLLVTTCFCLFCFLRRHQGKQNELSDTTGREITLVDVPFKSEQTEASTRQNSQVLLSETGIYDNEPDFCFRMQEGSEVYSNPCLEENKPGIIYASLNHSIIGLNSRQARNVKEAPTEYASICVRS
Experimental: as §1

[5] = target: T1, human BTLA (B- and T-lymphocyte …); assay: FACS competition on HEK293T.hBTLA cells; competitor hrHVEM-His-DL650
Experimental: In FIG. 12A, recombinant HVEM soluble protein was conjugated with DyLight 650 (DL650) fluorophore. HEK293 cells overexpressing hBTLA (HEK293.BTLA) were preincubated with increasing concentrations of selected HFB6-3 humanized variants with cysteine mutants or parental HFB6-3 at 4° C. for 30 minutes and then with DL650-conjugated HVEM for additional 30 minutes. After washing, soluble HVEM remaining associated with BTLA on HEK293.BTLA cells was measured by FACS.

[6] = target: T1, human BTLA (B- and T-lymphocyte …); assay: cell-based or functional assay; remark: listed apart in the source
[7] = target: T1, human BTLA (B- and T-lymphocyte …); assay: FACS competition on HEK293.BTLA cells; competitor DL650-conjugated soluble HVEM
Experimental: In FIG. 3A, recombinant HVEM soluble protein was conjugated with DyLight 650 (DL650) fluorophore. HEK293 cells overexpressing hBTLA (HEK293.BTLA) were preincubated with increasing concentrations of HFB6-2 and HFB6-3 at 4° C. for 30 minutes and then with DL650-conjugated HVEM for an additional 30 minutes. After washing, soluble HVEM remaining associated with BTLA on HEK293.BTLA cells was measured by FACS. HFB6-2 and HFB6-3 blocked soluble HVEM and cellular BTLA interaction with single digit nM IC₅₀.

[8] = target: T1, human BTLA (B- and T-lymphocyte …); assay: FACS on HEK293 cells overexpressing human BTLA, AF647 anti-human IgG Fc detection
Experimental: (§2) In FIGS. 2A-2B, HEK293 cells overexpressing human BTLA and Expi293 cells overexpressing cynomolgus BTLA were incubated with different concentrations of anti-BTLA parental antibodies. Anti-BTLA antibody binding to target cells was quantified with an AF647-conjugated anti-human IgG Fc 2nd antibody by FACS.

cynomolgus BTLA on cells [9] = target: T3, cynomolgus BTLA on cells; assay: FACS on Expi293 cells overexpressing cynomolgus BTLA, AF647 anti-human IgG Fc detection
Experimental: as §2

[10] = target: T1, human BTLA (B- and T-lymphocyte …); assay: FACS, primary human T cells, donor 149, AF647 anti-human IgG Fc secondary antibody
Experimental: (§3) In FIGS. 4A-4D, primary T cells and B cells were isolated from human PBMC with EasySep™ Human T Cell Isolation Kit and B cell isolation kit ([…] Technologies: Vancouver, Canada). Isolated T cells or B cells were incubated with different concentrations of anti-BTLA parental antibodies. Anti-BTLA antibody binding to target cells was quantified with an AF647-conjugated anti-human IgG Fc 2nd antibody by FACS.

[11] = target: T1, human BTLA (B- and T-lymphocyte …); assay: FACS, primary human B cells, donor 149, AF647 anti-human IgG Fc secondary antibody
Experimental: as §3

[12] = target: T1, human BTLA (B- and T-lymphocyte …); assay: FACS, primary human T cells, donor 1709, AF647 anti-human IgG Fc secondary antibody
Experimental: as §3

[13] = target: T1, human BTLA (B- and T-lymphocyte …); assay: FACS, primary human B cells, donor 1709, AF647 anti-human IgG Fc secondary antibody
Experimental: as §3

B1: HFB6-2hz19-hG4P (antibody, V domains shown)
VH: EVQLLESGGGLVQPGGSLRLSCAASGVNIKDTYMYWVRQAPGKGLEWIGRIDPANGYTRYADSVKGRFTISADNSKNTLYLQMNSLRAEDTAVYYCAVNDGYFEYFDVWGQGTTVTVSS
VL: DIVMTQSPDSLAVSLGERATINCKSSQSLLDSDGKPYLNWLQQKPGQSPKRLIYLVSKLDSGVPDRFSGSGSGTDFTLTISSVQAEDVAVYYCWQDTHFPRTFGQGTKLEIK
notes: Humanized variant of HFB6-2
With B1 the “Reporter EC50” value [1] was 22.1 nM and the EC50 (recombinant human BTLA) was 2.55 nM.

B2: HFB6-3hz24-hG4P-C109A (antibody, V domains shown)
VH: QVQLQESGPGLVKPSGTLSLTCADSGFNIKDTYIHWVRQPPGKGLEWIGRIDPANGFTRYNPSLKSRVTISSDKSKNQASLKLSSVTAADTAVYYCAREDGYPYYTLDAWGQGTTVTVSS
VL: B1 VL with V13L, S32V, P36T, L41F, S48P, D96G
notes: Humanized variant of HFB6-3
In the case of B2, the “CHO.TCRa.hHVEM/Jurkat.hBTLA.NFAT-luc (EC50 (nM))” value [2] is reported as 13 nM, the EC50 [3] is reported as 3.27 nM and the EC50 (cynomolgus BTLA on cells [4]) is reported as 6.89 nM. The IC50 [5] was 2.64 nM.

B3: HFB6-2hz20-hG4P (antibody, V domains shown)
VH: QVQLQESGPGLVKPSGTLSLTCAASGVNIKDTYMYWVRQPPGKGLEWIGRIDPANGYTRYNPSFKSRATVSADKSKNQASLKLSSLTAADTAVYYCAVNDGYFEYFDVWGQGTTVTVSS
VL: B1 VL
notes: Humanized variant of HFB6-2
For B3, the “Reporter EC50” value [1] was 9.77 nM and the EC50 (recombinant human BTLA) was 2.51 nM.

B4: HFB6-3hz20-hG4P (antibody, V domains shown)
VH: B2 VH with L64F, V68A, A109C
VL: B1 VL with V13L, S32V, P36T, L41F, S48P, D96G
notes: Humanized variant of HFB6-3
With B4 the EC50 [3] was 3.84 nM, the EC50 (cynomolgus BTLA on cells [4]) was 7.38 nM and the IC50 [5] was 2.91 nM.

B5: HFB6-3hz25-hG4P-C109A (antibody, V domains shown)
VH: B2 VH with N28S, K30S
VL: B1 VL with V13L, S32V, P36T, L41F, S48P, D96G
notes: Humanized variant of HFB6-3
For B5, the “CHO.TCRa.hHVEM/Jurkat.hBTLA.NFAT-luc (EC50 (nM))” value [2] was 10.2 nM, the EC50 [3] was 3.2 nM and the EC50 (cynomolgus BTLA on cells [4]) was 9.69 nM. For the same binder, the IC50 [5] was 2.61 nM.

B6: HFB6-3hz25-hG4P-C109S (antibody, V domains shown)
VH: B2 VH with N28S, K30S, A109S
VL: B1 VL with V13L, S32V, P36T, L41F, S48P, D96G
notes: Humanized variant of HFB6-3
In the case of B6, the “CHO.TCRa.hHVEM/Jurkat.hBTLA.NFAT-luc (EC50 (nM))” value [2] is reported as 14.4 nM, the EC50 [3] is reported as 4.04 nM and the EC50 (cynomolgus BTLA on cells [4]) is reported as 8.83 nM. For the same binder, the IC50 [5] was 3.2 nM.

B7: HFB6-3hz24-hG4P-C109S (antibody, V domains shown)
VH: B2 VH with A109S
VL: B1 VL with V13L, S32V, P36T, L41F, S48P, D96G
notes: Humanized variant of HFB6-3
For B7, the “CHO.TCRa.hHVEM/Jurkat.hBTLA.NFAT-luc (EC50 (nM))” value [2] was 16.6 nM, the EC50 [3] was 3.6 nM and the EC50 (cynomolgus BTLA on cells [4]) was 7.83 nM. It also gave an IC50 [5] of 3.22 nM.

B8: HFB6-2 (antibody, V domains shown)
VH: EVQLQQSGAELVKPGASVKLSCTASGVNIKDTYMYWVKQRPEQGLEWIGRIDPANGYTRYDPKFQDKATVTADTSSNTAHLQLSSLTSEDTAVYYCAVNDGYFEYFDVWGAGTTVTVSS
VL: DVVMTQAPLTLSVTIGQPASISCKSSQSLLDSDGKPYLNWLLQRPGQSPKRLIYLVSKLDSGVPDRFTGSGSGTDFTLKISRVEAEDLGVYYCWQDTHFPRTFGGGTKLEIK
notes: Mouse lead antibody; also called HFB6-2-hG4P; parental HFB6-2
In the case of B8, the “BTLA-HVEM blockade reporter assay, EC50” value [6] is reported as 10.2 nM, the “Reporter EC50” value [1] is reported as 11.5 nM and the EC50 (recombinant human BTLA) is reported as 2.35 nM. It also gave an IC50 [7] of 5.45 nM, an EC50 [8] of 2.34 nM and an EC50 (cynomolgus BTLA on cells [9]) of 0.614 nM. The EC50 [10] was 1.4 nM, the EC50 [11] was 0.8 nM and the EC50 [12] was 2 nM. It also gave an EC50 [13] of 0.28 nM.

B9: HFB6-2hz9-hG4P (antibody, V domains shown)
VH: QVQLVQSGAEVKKPGASVKVSCKASGVNIKDTYMYWVRQAPGQGLEWIGRIDPANGYTRYAQKFQGRATVTADTSTSTVYLELSSLRSEDTAVYYCAVNDGYFEYFDVWGQGTTVTVSS
VL: EIVLTQSPGTLSLSPGERATLSCRSSQSLLDSDGKPYLNWLQQKPGQAPRRLIYLVSKLDSGIPDRFSGSGSGTDFTLTISRLEPEDLAVYYCWQDTHFPRTFGQGTKLEIK
notes: Humanized variant of HFB6-2
B9 was tested, and the “Reporter EC50” value [1] was 36.7 nM and the EC50 (recombinant human BTLA) was 3.29 nM.

B10: HFB6-2hz16-hG4P (antibody, V domains shown)
VH: B9 VH
VL: B1 VL
notes: Humanized variant of HFB6-2
In the case of B10, the “Reporter EC50” value [1] is reported as 10.8 nM and the EC50 (recombinant human BTLA) is reported as 2.39 nM.

B11: HFB6-2hz12-hG4P (antibody, V domains shown)
VH: B1 VH
VL: B9 VL
notes: Humanized variant of HFB6-2
With B11 the “Reporter EC50” value [1] was 43.2 nM and the EC50 (recombinant human BTLA) was 5.05 nM.

B12: HFB6-2hz11-hG4P (antibody, V domains shown)
VH: B9 VH with A16S, T58A, T74K, V79A
VL: B9 VL
notes: Humanized variant of HFB6-2
In the case of B12, the “Reporter EC50” value [1] is reported as 19.4 nM and the EC50 (recombinant human BTLA) is reported as 3.66 nM.

B13: HFB6-2hz0-hG4P (antibody, V domains shown)
VH: B9 VH with A16S, T58A, V70I, T74E, V79A
VL: B9 VL
In the case of B13, the “Reporter EC50” value [1] is reported as 47 nM and the EC50 (recombinant human BTLA) is reported as 3.21 nM.

B14: HFB6-2hz18-hG4P (antibody, V domains shown)
VH: B9 VH with A16S, T58A, T74K, V79A
VL: B1 VL
notes: Humanized variant of HFB6-2
With B14 the “Reporter EC50” value [1] was 10.8 nM and the EC50 (recombinant human BTLA) was 2.24 nM.

B15: HFB6-2hz15-hG4P (antibody, V domains shown)
VH: B9 VH with A68V, V70M, L81M
VL: B1 VL
notes: Humanized variant of HFB6-2
For B15, the “Reporter EC50” value [1] was 19.6 nM and the EC50 (recombinant human BTLA) was 2.74 nM.

B16: HFB6-2hz17-hG4P (antibody, V domains shown)
VH: B9 VH with A16S, T58A, V70I, T74E, V79A
VL: B1 VL
notes: Humanized variant of HFB6-2
With B16 the “Reporter EC50” value [1] was 18.2 nM and the EC50 (recombinant human BTLA) was 2.4 nM.

B17: HFB6-2hz8-hG4P (antibody, V domains shown)
VH: B9 VH with A68V, V70M, L81M
VL: B9 VL
notes: Humanized variant of HFB6-2
For B17, the “Reporter EC50” value [1] was 66.8 nM and the EC50 (recombinant human BTLA) was 3.96 nM.
